Experimental data as given in patent US20250066503A1, “CELL INJURY INDUCING THERAPEUTIC DRUG FOR USE IN CANCER THERAPY” (CHUGAI SEIYAKU KABUSHIKI KAISHA, priority 2016, published 2025).
Changes are numbered by the printed parent chain.

B1: TR01H040-E22Hh/none-Hi-Kn010G3/L0200-k0 (antibody, V domains shown)
VH: QVQLVESGGGLVQPGRSLRLSCAASGFTFSNAWMHWVRQAPGKGLEWVAQIKDKSQNYATYYAESVKGRFTISRADSKNSIYLQMNSLKTEDTAVYYCRYVHYSASYGVDAWGQGTTVTVSS
VL: DIVMTQSPLSLPVTPGEPASISCRPSQSPVHSNRNTYLHWYQQKPGQAPRLLIYKVSNRFSGVPDRFSGSGSGTDFTLKISRVEAEDVGVYYCGQGTQVPYTFGQGTKLEIK
notes: one-arm
B2: TR01H040-E22Hh/none-Hi-Kn010G3/L0240-k0 (antibody, V domains shown)
VH: B1 VH
VL: B1 VL with P25S, Q27E, G94Y
notes: one-arm
B3: TR01H040-E22Hh/none-Hi-Kn010G3/L0248-k0 (antibody, V domains shown)
VH: B1 VH
VL: B1 VL with L38I, H39Q, G94Y
notes: one-arm
B4: TR01H040-E22Hh/none-Hi-Kn010G3/L0247-k0 (antibody, V domains shown)
VH: B1 VH
VL: B1 VL with P25S, L38I, H39Q, G94I
notes: one-arm
B5: TR01H061-E22Hh/none-Hi-Kn010G3/L0226-k0 (antibody, V domains shown)
VH: B1 VH with S104A, A111I
VL: B1 VL with P25S, L38I, G94I
notes: one-arm
B6: TR01H040-E22Hh/none-Hi-Kn010G3/L0228-k0 (antibody, V domains shown)
VH: B1 VH
VL: B1 VL with P25S, L38I, G94V
notes: one-arm
B7: TR01H040-E22Hh/none-Hi-Kn010G3/L0250-k0 (antibody, V domains shown)
VH: B1 VH
VL: B1 VL with L38I, H39Q, G94I
notes: one-arm
B8: TR01H040-E22Hh/none-Hi-Kn010G3/L0249-k0 (antibody, V domains shown)
VH: B1 VH
VL: B1 VL with L38I, H39Q, G94S
notes: one-arm
B9: TR01H040-E22Hh/none-Hi-Kn010G3/L0235-k0 (antibody, V domains shown)
VH: B1 VH
VL: B1 VL with P25S, S28E, G94Y
notes: one-arm
B10: TR01H040-E22Hh/none-Hi-Kn010G3/L0210-k0 (antibody, V domains shown)
VH: B1 VH
VL: B1 VL with P25S, N35W, G94Y
notes: one-arm
B11: TR01H040-E22Hh/none-Hi-Kn010G3/L0243-k0 (antibody, V domains shown)
VH: B1 VH
VL: B1 VL with P25S, Q27E, S28P, S61R
notes: one-arm
B12: TR01H040-E22Hh/none-Hi-Kn010G3/L0202-k0 (antibody, V domains shown)
VH: B1 VH
VL: B1 VL with P25S, N35W
notes: one-arm
B13: TR01H040-E22Hh/none-Hi-Kn010G3/L0231-k0 (antibody, V domains shown)
VH: B1 VH
VL: B1 VL with P25S, L38I, G94Y, V99W
notes: one-arm
B14: TR01H040-E22Hh/none-Hi-Kn010G3/TR01L016-k0 (antibody, V domains shown)
VH: B1 VH
VL: B1 VL with P25S, Q42L, A48S, R50Q, G94Y
notes: one-arm
B15: TR01H040-E22Hh/none-Hi-Kn010G3/L0213-k0 (antibody, V domains shown)
VH: B1 VH
VL: B1 VL with P25S, L38I, S61R
notes: one-arm
B16: TR01H040-E22Hh/none-Hi-Kn010G3/L0218-k0 (antibody, V domains shown)
VH: B1 VH
VL: B1 VL with P25S, P29L, S61R, G94Y
notes: one-arm
B17: TR01H061-E22Hh/none-Hi-Kn010G3/L0215-k0 (antibody, V domains shown)
VH: B1 VH with S104A, A111I
VL: B1 VL with P25S, S28P, L38I
notes: one-arm
B18: TR01H061-E22Hh/none-Hi-Kn010G3/L0200-k0 (antibody, V domains shown)
VH: B1 VH with S104A, A111I
VL: B1 VL
notes: one-arm
B19: TR01H040-E22Hh/none-Hi-Kn010G3/L0241-k0 (antibody, V domains shown)
VH: B1 VH
VL: B1 VL with P25S, Q27E, S61W, G94Y
notes: one-arm
B20: TR01H040-E22Hh/none-Hi-Kn010G3/L0238-k0 (antibody, V domains shown)
VH: B1 VH
VL: B1 VL with P25S, Q27E, S28P, G94Y
notes: one-arm
B21: TR01H040-E22Hh/none-Hi-Kn010G3/L0262-k0 (antibody, V domains shown)
VH: B1 VH
VL: B1 VL with P25S, S28P, G94A
notes: one-arm
B22: TR01H040-E22Hh/none-Hi-Kn010G3/L0227-k0 (antibody, V domains shown)
VH: B1 VH
VL: B1 VL with P25S, L38I, G94L
notes: one-arm
B23: TR01H040-E22Hh/none-Hi-Kn010G3/TR01L009-k0 (antibody, V domains shown)
VH: B1 VH
VL: B1 VL with P25S, P29L, Q42L, A48S, R50Q, S61R
notes: one-arm
B24: TR01H040-E22Hh/none-Hi-Kn010G3/L0239-k0 (antibody, V domains shown)
VH: B1 VH
VL: B1 VL with P25S, Q27E, S61R
notes: one-arm
B25: TR01H067-E22Hh/none-Hi-Kn010G3/L0248-k0 (antibody, V domains shown)
VH: B1 VH with A75D, I81L, S104A
VL: B1 VL with L38I, H39Q, G94Y
notes: one-arm
B26: TR01H040-E22Hh/none-Hi-Kn010G3/TR01L015-k0 (antibody, V domains shown)
VH: B1 VH
VL: B1 VL with P25S, Q42L, A48S, R50Q
notes: one-arm
B27: TR01H040-E22Hh/none-Hi-Kn010G3/L0242-k0 (antibody, V domains shown)
VH: B1 VH
VL: B1 VL with P25S, Q27E, L38I, G94Y
notes: one-arm
B28: TR01H040-E22Hh/none-Hi-Kn010G3/L0220-k0 (antibody, V domains shown)
VH: B1 VH
VL: B1 VL with P25S, S28P, P29L, S61R, G94Y
notes: one-arm
B29: TR01H067-E22Hh/none-Hi-Kn010G3/L0215-k0 (antibody, V domains shown)
VH: B1 VH with A75D, I81L, S104A
VL: B1 VL with P25S, S28P, L38I
notes: one-arm
B30: TR01H040-E22Hh/none-Hi-Kn010G3/L0237-k0 (antibody, V domains shown)
VH: B1 VH
VL: B1 VL with P25S, S28E, L38I, G94Y
notes: one-arm
B31: TR01H040-E22Hh/none-Hi-Kn010G3/L0224-k0 (antibody, V domains shown)
VH: B1 VH
VL: B1 VL with P25S, L38I, S61P, G94Y
notes: one-arm
B32: TR01H040-E22Hh/none-Hi-Kn010G3/L0226-k0 (antibody, V domains shown)
VH: B1 VH
VL: B1 VL with P25S, L38I, G94I
notes: one-arm
B33: TR01H040-E22Hh/none-Hi-Kn010G3/L0215-k0 (antibody, V domains shown)
VH: B1 VH
VL: B1 VL with P25S, S28P, L38I
notes: one-arm
B34: TR01H040-E22Hh/none-Hi-Kn010G3/L0232-k0 (antibody, V domains shown)
VH: B1 VH
VL: B1 VL with P25S, Q27E, P29L
notes: one-arm
B35: TR01H040-E22Hh/none-Hi-Kn010G3/L0246-k0 (antibody, V domains shown)
VH: B1 VH
VL: B1 VL with P25S, L38I, H39Q, G94S
notes: one-arm
B36: TR01H040-E22Hh/none-Hi-Kn010G3/L0236-k0 (antibody, V domains shown)
VH: B1 VH
VL: B1 VL with P25S, S28E, S61W, G94Y
notes: one-arm
B37: TR01H040-E22Hh/none-Hi-Kn010G3/L0223-k0 (antibody, V domains shown)
VH: B1 VH
VL: B1 VL with P25S, L38I, F60L, G94Y
notes: one-arm
B38: TR01H067-E22Hh/none-Hi-Kn010G3/L0200-k0 (antibody, V domains shown)
VH: B1 VH with A75D, I81L, S104A
VL: B1 VL
notes: one-arm
B39: TR01H040-E22Hh/none-Hi-Kn010G3/L0216-k0 (antibody, V domains shown)
VH: B1 VH
VL: B1 VL with P25S, S28P, P29L, S61R
notes: one-arm
B40: TR01H040-E22Hh/none-Hi-Kn010G3/TR01L008-k0 (antibody, V domains shown)
VH: B1 VH
VL: B1 VL with R24Q, P25A, Q27E, P29L, S61R
notes: one-arm
B41: TR01H040-E22Hh/none-Hi-Kn010G3/TR01L010-k0 (antibody, V domains shown)
VH: B1 VH
VL: B1 VL with P25S, P29L, S61R, L109V, K112E
notes: one-arm
B42: TR01H040-E22Hh/none-Hi-Kn010G3/L0233-k0 (antibody, V domains shown)
VH: B1 VH
VL: B1 VL with P25S, S28E, P29L
notes: one-arm
B43: TR01H040-E22Hh/none-Hi-Kn010G3/L0234-k0 (antibody, V domains shown)
VH: B1 VH
VL: B1 VL with P25S, S28E, S61R
notes: one-arm
B44: TR01H040-E22Hh/none-Hi-Kn010G3/L0207-k0 (antibody, V domains shown)
VH: B1 VH
VL: B1 VL with P25S, S61R, G94Y
notes: one-arm
B45: TR01H040-E22Hh/none-Hi-Kn010G3/L0205-k0 (antibody, V domains shown)
VH: B1 VH
VL: B1 VL with P25S, S61W
notes: one-arm
B46: TR01H067-E22Hh/none-Hi-Kn010G3/L0226-k0 (antibody, V domains shown)
VH: B1 VH with A75D, I81L, S104A
VL: B1 VL with P25S, L38I, G94I
notes: one-arm
B47: TR01H040-E22Hh/none-Hi-Kn010G3/L0217-k0 (antibody, V domains shown)
VH: B1 VH
VL: B1 VL with P29L, S61R
notes: one-arm
B48: TR01H040-E22Hh/none-Hi-Kn010G3/L0214-k0 (antibody, V domains shown)
VH: B1 VH
VL: B1 VL with P25S, S28P, S61R
notes: one-arm
B49: TR01H040-E22Hh/none-Hi-Kn010G3/L0219-k0 (antibody, V domains shown)
VH: B1 VH
VL: B1 VL with P25S, P29L, L38I, S61R
notes: one-arm

Target: T1, soluble human CD3 epsilon chain (human, UniProt P07766 23-126)
T1 construct: also called CD3ε
Assay: SPR

T1 sequence (P07766 23-126 limits assumed): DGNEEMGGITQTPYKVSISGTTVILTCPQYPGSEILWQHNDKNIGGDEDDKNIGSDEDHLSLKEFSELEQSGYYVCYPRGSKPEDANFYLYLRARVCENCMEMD

Q: B1 was tested. Which Kd did it give?
A: 28.7 nM

Q: For B2, which Kd is on record?
A: 2.17 nM

Q: With B3 as the binder, how does the Kd read?
A: 78.9 nM

Q: How did the Kd turn out when B4 was run?
A: 100 nM

Q: With B5 as the binder, how does the Kd read?
A: 47.1 nM

Q: B6 was tested. Which Kd did it give?
A: 16 nM

Q: How did the Kd turn out when B7 was run?
A: 21.5 nM

Q: With B8 as the binder, how does the Kd read?
A: 111 nM

Q: How did the Kd turn out when B9 was run?
A: 2.81 nM

Q: Which Kd does the source give for B10 here?
A: 5.06 nM

Q: B11 was tested. Which Kd did it give?
A: 24.6 nM

Q: B12 was tested. Which Kd did it give?
A: 61.9 nM

Q: B13 was tested. Which Kd did it give?
A: 7.75 nM

Q: How did the Kd turn out when B14 was run?
A: 2.52 nM

Q: For B15, which Kd is on record?
A: 20.1 nM

Q: B16 was tested. Which Kd did it give?
A: 8.2 nM

Q: For B17, which Kd is on record?
A: 15.4 nM

Q: B18 was tested. Which Kd did it give?
A: 12.7 nM

Q: B19 was tested. Which Kd did it give?
A: 3.48 nM

Q: With B20 as the binder, how does the Kd read?
A: 2.91 nM

Q: B21 was tested. Which Kd did it give?
A: 18.1 nM

Q: Which Kd does the source give for B22 here?
A: 101 nM

Q: Which Kd does the source give for B23 here?
A: 35.6 nM

Q: With B24 as the binder, how does the Kd read?
A: 23.1 nM

Q: Which Kd does the source give for B25 here?
A: 139 nM

Q: For B26, which Kd is on record?
A: 39.5 nM

Q: With B27 as the binder, how does the Kd read?
A: 3.58 nM

Q: B28 was tested. Which Kd did it give?
A: 9.15 nM

Q: For B29, which Kd is on record?
A: 74.1 nM

Q: How did the Kd turn out when B30 was run?
A: 10.2 nM

Q: How did the Kd turn out when B31 was run?
A: 5.06 nM

Q: With B32 as the binder, how does the Kd read?
A: 80.1 nM

Q: For B33, which Kd is on record?
A: 33.7 nM

Q: Which Kd does the source give for B34 here?
A: 38.6 nM

Q: For B35, which Kd is on record?
A: 92.8 nM

Q: B36 was tested. Which Kd did it give?
A: 5.64 nM

Q: For B37, which Kd is on record?
A: 8.15 nM

Q: With B38 as the binder, how does the Kd read?
A: 60.3 nM

Q: B39 was tested. Which Kd did it give?
A: 25.3 nM

Q: How did the Kd turn out when B40 was run?
A: 29.3 nM

Q: B41 was tested. Which Kd did it give?
A: 32.8 nM

Q: B42 was tested. Which Kd did it give?
A: 40.1 nM

Q: B43 was tested. Which Kd did it give?
A: 24 nM

Q: Which Kd does the source give for B44 here?
A: 2.6 nM

Q: For B45, which Kd is on record?
A: 34.2 nM

Q: B46 was tested. Which Kd did it give?
A: 132 nM

Q: Which Kd does the source give for B47 here?
A: 20.7 nM

Q: Which Kd does the source give for B48 here?
A: 20.2 nM

Q: B49 was tested. Which Kd did it give?
A: 39.4 nM
